# T1: Protein 8: Exiguobacterium PAL-like domain with N-terminal TAP purification tag and HRV14 3C protease site linker
# T1 sequence: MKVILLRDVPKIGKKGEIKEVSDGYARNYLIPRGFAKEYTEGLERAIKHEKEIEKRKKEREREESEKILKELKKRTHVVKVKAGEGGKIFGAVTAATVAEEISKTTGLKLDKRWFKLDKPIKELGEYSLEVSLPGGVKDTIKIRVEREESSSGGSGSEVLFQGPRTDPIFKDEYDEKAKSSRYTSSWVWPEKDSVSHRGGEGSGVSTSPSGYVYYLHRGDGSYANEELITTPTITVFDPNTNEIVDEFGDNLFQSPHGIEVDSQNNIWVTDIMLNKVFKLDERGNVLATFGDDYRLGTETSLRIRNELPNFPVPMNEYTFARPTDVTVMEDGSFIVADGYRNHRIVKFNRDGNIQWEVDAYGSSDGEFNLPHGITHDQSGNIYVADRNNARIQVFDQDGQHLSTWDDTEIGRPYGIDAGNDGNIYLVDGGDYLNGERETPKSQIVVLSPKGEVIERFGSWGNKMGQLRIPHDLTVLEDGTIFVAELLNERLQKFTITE
# T2: Protein 3: Erythrobacter sp. SD-21 PAL-like domain with N-terminal TAP purification tag (ribosomal protein L9 from T. maritima) and HRV14 3C protease site linker
# T2 sequence: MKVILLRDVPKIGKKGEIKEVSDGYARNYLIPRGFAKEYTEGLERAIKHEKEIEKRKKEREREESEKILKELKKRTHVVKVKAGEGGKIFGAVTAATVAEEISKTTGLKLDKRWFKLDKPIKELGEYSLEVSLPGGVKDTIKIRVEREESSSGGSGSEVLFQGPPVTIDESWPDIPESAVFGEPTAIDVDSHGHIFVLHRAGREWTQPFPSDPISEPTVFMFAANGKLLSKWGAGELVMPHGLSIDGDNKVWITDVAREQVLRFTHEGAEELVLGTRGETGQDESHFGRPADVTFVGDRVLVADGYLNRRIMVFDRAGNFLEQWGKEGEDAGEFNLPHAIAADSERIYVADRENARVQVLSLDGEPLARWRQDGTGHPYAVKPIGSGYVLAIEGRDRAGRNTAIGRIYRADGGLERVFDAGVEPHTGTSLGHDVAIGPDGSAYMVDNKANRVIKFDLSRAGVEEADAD
# T3: TAP tagged amylin analog model peptide (SEQ ID NO:17), alpha-hydroxyglycine intermediate form
# T3 chain: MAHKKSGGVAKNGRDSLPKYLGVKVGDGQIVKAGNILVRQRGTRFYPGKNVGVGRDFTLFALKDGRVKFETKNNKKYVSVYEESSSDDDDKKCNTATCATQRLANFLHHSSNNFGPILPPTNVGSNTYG
# T4: TAP tagged C-terminal Gly extended amylin analog model peptide (SEQ ID NO:17), precursor form
# T4 chain: T3 chain
# B1: Erythrobacter PAL-like domain (SEQ ID NO: 1) (protein)
# chain: GPPVTIDESWPDIPESAVFGEPTAIDVDSHGHIFVLHRAGREWTQPFPSDPISEPTVFMFAANGKLLSKWGAGELVMPHGLSIDGDNKVWITDVAREQVLRFTHEGAEELVLGTRGETGQDESHFGRPADVTFVGDRVLVADGYLNRRIMVFDRAGNFLEQWGKEGEDAGEFNLPHAIAADSERIYVADRENARVQVLSLDGEPLARWRQDGTGHPYAVKPIGSGYVLAIEGRDRAGRNTAIGRIYRADGGLERVFDAGVEPHTGTSLGHDVAIGPDGSAYMVDNKANRVIKFDLSRAGVEEADAD
# B2: Protein 3: Erythrobacter sp. SD-21 PAL-like domain with N-terminal TAP purification tag (ribosomal protein L9 from T. maritima) and HRV14 3C protease site … (protein)
# chain: T2 sequence
# B3: Protein 10: Planctomyces DSM 8797 PAL-like domain with N-terminal TAP purification tag and HRV14 3C protease site linker (protein)
# chain: MKVILLRDVPKIGKKGEIKEVSDGYARNYLIPRGFAKEYTEGLERAIKHEKEIEKRKKEREREESEKILKELKKRTHVVKVKAGEGGKIFGAVTAATVAEEISKTTGLKLDKRWFKLDKPIKELGEYSLEVSLPGGVKDTIKIRVEREESSSGGSGSEVLFQGPADKIDFEPAAINIELPEGLALGPASAVDFDSKGRMYLFHRGPQPILVFDQSGKFVRSWGDKLISQAHGLRVAPDETIWVTDIGNHMVFQFNPEGKLLLALGQAGKPGDSQDQFNKPTDIAFGPQGEFYISDGYGNSRVMKFAANGKNLGQWGTPGKGPGEFNLPHSILVDAKGRVLVGDRENDRVQIFDLEGNLLEIWTGFAPYGMEFDSRGNLFVADGRANKVLQLNASGKVENSWGKTGKEPGEYNLPHMLAVDAAGNLFVTEIGGKRLQKLQRK
# B4: rat PHM domain (amino acids 36 to 497 of the 976 aa full-length rat PAM sequence), His tagged (protein)
# chain: FKETTRSFSNECLGTIGPVTPLDASDFALDIRMPGVTPKESDTYFCMSMRLPVDEEAFVIDFKPRASMDTVHHMLLFGCNMPSSTGSYWFCDEGTCTDKANILYAWARNAPPTRLPKGVGFRVGGETGSKYFVLQVHYGDISAFRDNHKDCSGVSVHLTRVPQPLIAGMYLMMSVDTVIPPGEKVVNADISCQYKMYPMHVFAYRVHTHHLGKVVSGYRVRNGQWTLIGRQNPQLPQAFYPVEHPVDVTFGDILAARCVFTGEGRTEATHIGGTSSDEMCNLYIMYYMEAKYALSFMTCTKNVAPDMFRTIPAEANIPIPVKPDMVMMHGHHKEAENKEKSALMQQPKQGEEEVLEQGDFYSLLSKLLGEREDVHVHKYNPTEKTESGSDLVAEIANVVQKKDLGRSDAREGAEHEEWGNAILVRDRIHRFHQLESTLRPAESRAFSFQQPGEGPWEPEPSG
# B5: Planctomyces PAL-like domain (SEQ ID NO: 4) (protein)
# chain: GPADKIDFEPAAINIELPEGLALGPASAVDFDSKGRMYLFHRGPQPILVFDQSGKFVRSWGDKLISQAHGLRVAPDETIWVTDIGNHMVFQFNPEGKLLLALGQAGKPGDSQDQFNKPTDIAFGPQGEFYISDGYGNSRVMKFAANGKNLGQWGTPGKGPGEFNLPHSILVDAKGRVLVGDRENDRVQIFDLEGNLLEIWTGFAPYGMEFDSRGNLFVADGRANKVLQLNASGKVENSWGKTGKEPGEYNLPHMLAVDAAGNLFVTEIGGKRLQKLQRK
# Tests used:
# [1] = system: T1, Protein 8: Exiguobacterium PAL-like domain with N-terminal TAP purification tag and HRV14 3C protease site linker
# [2] = system: T2, Protein 3: Erythrobacter sp. SD-21 PAL-like domain with N-terminal TAP purification tag (ribosomal protein L9 from T. maritima) and HRV14 3C protease site linker
# [3] = target: C-terminal alpha-hydroxyglycine extended Pramlintide (alpha-hydroxylated SEQ ID NO:25)
# [4] = target: T3, TAP tagged amylin analog model peptide …
# [5] = target: C-terminally Gly-extended Pramlintide (SEQ ID NO: 25)
# [6] = target: T4, TAP tagged C-terminal Gly extended …
Molecule,"conversion of the alpha-hydroxyglycine intermediate to alpha amidated Pramlintide, LC-MS, 37 C, 1 h [3]","conversion to the alpha amidated form, LC-MS, co-incubation with rat PHM at 37 C [4]",also measured
TAP tagged HRV14 3C protease (from WO 2008/043847),–,–,"proteolytic cleavage at the linker, SDS-PAGE, overnight, enzyme to substrate 1:25 [1]: two fragments corresponding to the mature Exiguibacterium PAL-like domain (SEQ ID NO:2) (upper band) and the released TAP tag (SEQ ID NO:7-SEQ ID NO:8) (lower band) was present in the application; proteolytic cleavage at the linker, LC-MS and SDS-PAGE, overnight at 30 C, enzyme to substrate 1:25 [2]: resulted in two fragments determined to 33323 Da and 18284.78 Da corresponding to the released PAL-like domain ... and to the released purification tag and HRV14 3C linker"
B1,could almost completely convert the peptide substrate to fully alpha-amidated peptide using a enzyme to substrate ratio of 1:100,–,–
B2,–,near complete conversion to the alpha amidated form required 5 hours incubation with the protein 3 enzyme,–
B3,–,With protein 10 total conversion of the precursor was observed already after 1 h-2 h incubation,–
B4,–,–,"conversion of Gly-extended Pramlintide to the alpha-hydroxyglycine form, LC-MS, enzyme to substrate 1:20 (w/w), 37 C, 2 h [5]: it was verified that the intermediate alpha-hydroxyglycine form of Pramlintide was obtained; conversion of the C-terminal Gly to alpha-hydroxyglycine, LC-MS after 2 hours at 37 C [6]: the vast majority of the model peptide was on the intermediate form comprising a α-hydroxyglycine in the C-terminal"
B5,could almost completely convert the peptide substrate to fully alpha-amidated peptide using a enzyme to substrate ratio of 1:100,–,–

# Source: patent publication US20160083713
